For experiment [1], the target named is T1, mouse serum albumin (MSA), full length (mouse, UniProt P07724 25-608).
T1 construct: mature; Immobilized on CM5 chip (SPR) or coated on plates (ELISA); also called mouse albumin; murine serum albumin
In words: direct binding ELISA, coated MSA, anti-His-HRP. Set-up: unit not given here.
Target sequence in this assay (P07724 25-608): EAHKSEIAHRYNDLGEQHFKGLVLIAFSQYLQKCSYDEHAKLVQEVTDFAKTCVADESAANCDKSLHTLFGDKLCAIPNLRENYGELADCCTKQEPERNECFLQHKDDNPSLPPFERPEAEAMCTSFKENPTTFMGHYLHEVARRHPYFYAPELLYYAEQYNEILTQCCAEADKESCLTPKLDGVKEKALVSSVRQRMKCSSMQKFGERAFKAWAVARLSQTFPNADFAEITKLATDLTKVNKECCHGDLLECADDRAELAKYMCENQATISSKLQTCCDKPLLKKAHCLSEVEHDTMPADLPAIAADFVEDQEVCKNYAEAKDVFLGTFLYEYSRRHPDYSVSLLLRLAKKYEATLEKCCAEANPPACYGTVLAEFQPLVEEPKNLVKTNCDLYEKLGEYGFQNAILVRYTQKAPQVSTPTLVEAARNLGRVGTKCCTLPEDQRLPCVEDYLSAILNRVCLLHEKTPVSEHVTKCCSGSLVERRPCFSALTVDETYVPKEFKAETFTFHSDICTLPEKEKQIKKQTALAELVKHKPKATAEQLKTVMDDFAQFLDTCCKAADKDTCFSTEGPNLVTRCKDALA

Experiment [2] concerns the target T1, mouse serum albumin (MSA), full length. In words: SPR kinetics (Biacore, CM5): albumin immobilised, Adnectin concentration series as analyte, 37 C, 1:1 binding fit; curve Fc=3-1 [panel MSA]. Here is the method: (§1) The SPR was conducted as follows. Full length human, mouse, rat and cynomolgus monkey serum albumin were immobilized on a Biacore T series CM5 chip at 15 ug/mL in 10 mM acetate buffer (pH 5.0) buffer using standard NHS/EDC coupling, to a surface density of approximately 1000-1100 RU. For off-rate measurements at 25° C., PKE Adnectins were applied as analytes at 500 nM in HBS-P+(0.01 M HEPES pH 7.4, 0.15 M NaCl, 0.005% v/v Surfactant P20) running buffer at a flow rate of 20ul/min for 120 s over the immobilized albumins, followed by 800 s for dissociation. […] Regeneration of the chip surface between cycles was accomplished with two 30 second pulses of 10 mM Glycine, pH 2.0. Kinetic traces of reference-subtracted sensorgrams were fit to a 1:1 binding model for affinity using the Biaevaluation software. Only the dissociation phase was fit for determination of off-rates.

Experiment [3] has as its target T2, human serum albumin (HSA), full length (human, UniProt P02768 25-609).
T2 construct: mature; Immobilized on CM5 chip (SPR) or coated on plates (ELISA)
In words: not stated; upper end of the range 3-6 nM.

The target of experiment [4] is T3, cynomolgus monkey serum albumin (cynoSA), full length (cynomolgus monkey, UniProt A2V9Z4 25-608).
T3 construct: mature; Immobilized on CM5 chip (SPR); the cynoSA experiment used a different Biacore chip; also called CySA
T3 sequence (A2V9Z4 25-608): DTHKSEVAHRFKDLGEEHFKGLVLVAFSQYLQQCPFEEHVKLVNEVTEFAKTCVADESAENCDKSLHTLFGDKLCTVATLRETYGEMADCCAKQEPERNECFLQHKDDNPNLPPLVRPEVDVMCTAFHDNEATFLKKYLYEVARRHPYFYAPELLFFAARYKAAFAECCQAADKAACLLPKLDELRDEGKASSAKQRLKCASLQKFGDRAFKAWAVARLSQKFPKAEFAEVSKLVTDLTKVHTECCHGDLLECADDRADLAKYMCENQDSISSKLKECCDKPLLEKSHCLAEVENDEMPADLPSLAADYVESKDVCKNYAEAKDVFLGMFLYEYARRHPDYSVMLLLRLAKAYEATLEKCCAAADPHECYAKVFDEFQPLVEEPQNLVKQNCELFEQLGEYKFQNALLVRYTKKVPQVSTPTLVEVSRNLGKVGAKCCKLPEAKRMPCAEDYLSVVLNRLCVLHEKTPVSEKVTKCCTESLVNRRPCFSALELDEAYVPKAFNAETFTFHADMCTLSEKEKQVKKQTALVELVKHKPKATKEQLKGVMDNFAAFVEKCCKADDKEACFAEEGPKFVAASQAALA
In words: SPR kinetics, immobilized albumin, 1:1 fit, 37 C. How it is done: as §1

Experiment [5] addresses T1, mouse serum albumin (MSA), full length. In words: SPR kinetics, immobilized albumin, 1:1 fit, 37 C. Here is the method: as §1
Experiment [6] concerns the target T4, rat serum albumin (rat SA), full length (rat, UniProt P02770 25-608).
T4 construct: mature; Immobilized on CM5 chip (SPR); also called RSA
In words: SPR kinetics, immobilized albumin, 1:1 fit, 37 C. Here is the method: as §1

Experiment [7] deals with T2, human serum albumin (HSA), full length. In words: SPR kinetics, immobilized albumin, 1:1 fit, 37 C. How it is done:
as §1

For experiment [8] the target is unchanged. Briefly: SPR kinetics (Biacore, CM5): albumin immobilised, Adnectin concentration series as analyte, 37 C, 1:1 binding fit; curve Fc=2-1 [panel HSA]. Here is the method: as §1
The target is the same in experiment [9]. Briefly: SPR off-rate, immobilized HSA, 500 nM Adnectin, 25 C. Here is the method:
as §1, with “Measurements were conducted by SPR and ELISA. SPR” for “The SPR”, “length HSA or mouse” for “length human, mouse, rat and cynomolgus monkey serum”, “albumin was” for “albumin were”

Experiment [10] concerns the target T4, rat serum albumin (rat SA), full length. Briefly: SPR kinetics (Biacore, CM5): albumin immobilised, Adnectin concentration series as analyte, 37 C, 1:1 binding fit; curve Fc=4-1 [panel Rat SA]. How it is done: as §1
The target in experiment [11] is T3, cynomolgus monkey serum albumin …. In words: SPR kinetics (Biacore, CM5): ligand '15ug/ml CynoSA in Acetate 5.0' immobilised, Adnectin concentration series as analyte, 37 C, 1:1 binding fit; curve Fc=2-1 [panel Cyno SA]. How it is done: as §1
Experiment [12] concerns the target T1, mouse serum albumin (MSA), full length. Briefly: SPR off-rate, immobilized MSA, 500 nM Adnectin, 25 C. How it is done: as §1, with “Measurements were conducted by SPR and ELISA. SPR” for “The SPR”, “length HSA or mouse” for “length human, mouse, rat and cynomolgus monkey serum”, “albumin was” for “albumin were”
Experiment [13] deals with T2, human serum albumin (HSA), full length. Briefly: not stated; lower end of the range 3-6 nM.
For experiment [14] the target is unchanged. Briefly: SPR, immobilized HSA, 500 nM Adnectin, 25 C. How it is done: as §1, with “Measurements were conducted by SPR and ELISA. SPR” for “The SPR”, “length HSA or mouse” for “length human, mouse, rat and cynomolgus monkey serum”, “albumin was” for “albumin were”
Experiment [15] concerns the target T1, mouse serum albumin (MSA), full length. Briefly: SPR, immobilized MSA, 500 nM Adnectin, 25 C. Here is the method: as §1, with “Measurements were conducted by SPR and ELISA. SPR” for “The SPR”, “length HSA or mouse” for “length human, mouse, rat and cynomolgus monkey serum”, “albumin was” for “albumin were”
For experiment [16] the target is unchanged. In words: direct binding ELISA, coated MSA, anti-His-HRP. How it is done: Direct binding ELISA assays were conducted as follows. Full length human and murine serum albumin at 10ug/ml in PBS were coated on Nunc Maxisorp plates overnight at 4° C. Plates were blocked in casein/PBS buffer. PKE Adnectins were allowed to bind over a 4-point concentration range of 0.032-4 uM for HSA and 0.008-1 uM for MSA. Bound Adnectin was detected by anti-His antibody conjugated with HRP (horseradish peroxidase) diluted 1:1500 in casein/PBS. Plates were developed with TMB substrate and absorbance read at 450 nm. Adnectins were binned as high, medium and low affinity binders based on the observed Ymax of the concentration response curves.

Experiment [17] deals with T3, cynomolgus monkey serum albumin …. Briefly: SPR kinetics (Biacore, CM5): ligand '15ug/ml CynoSA in Acetate 5.0' immobilised, Adnectin concentration series as analyte, 37 C, 1:1 binding model; curve Fc=2-1 [panel Cyno SA]. Here is the method: as §1
In experiment [18] the target is T1, mouse serum albumin (MSA), full length. In words: SPR off-rate ratio to parent ADX_7016_A01, MSA, 25 C. How it is done:
as §1, with “Measurements were conducted by SPR and ELISA. SPR” for “The SPR”, “length HSA or mouse” for “length human, mouse, rat and cynomolgus monkey serum”, “albumin was” for “albumin were”

The target in experiment [19] is T2, human serum albumin (HSA), full length. Briefly: SPR off-rate ratio to parent ADX_7016_A01, HSA, 25 C. How it is done: as §1, with “Measurements were conducted by SPR and ELISA. SPR” for “The SPR”, “length HSA or mouse” for “length human, mouse, rat and cynomolgus monkey serum”, “albumin was” for “albumin were”
The target in experiment [20] is T3, cynomolgus monkey serum albumin …. In words: SPR kinetics (Biacore, CM5): ligand '15ug/ml CynoSA in Acetate5.0' immobilised, Adnectin concentration series as analyte, 37 C, 1:1 binding model; curve Fc=2-1 [panel Cyno SA]. Here is the method: as §1
The target is the same in experiment [21]. Briefly: SPR kinetics (Biacore, CM5): ligand '15ug/ml Cyno SA in Acetate 5.0' immobilised, Adnectin concentration series as analyte, 37 C, 1:1 binding fit; curve Fc=2-1 [panel Cyno SA]. Here is the method: as §1

T4 sequence (P02770 25-608): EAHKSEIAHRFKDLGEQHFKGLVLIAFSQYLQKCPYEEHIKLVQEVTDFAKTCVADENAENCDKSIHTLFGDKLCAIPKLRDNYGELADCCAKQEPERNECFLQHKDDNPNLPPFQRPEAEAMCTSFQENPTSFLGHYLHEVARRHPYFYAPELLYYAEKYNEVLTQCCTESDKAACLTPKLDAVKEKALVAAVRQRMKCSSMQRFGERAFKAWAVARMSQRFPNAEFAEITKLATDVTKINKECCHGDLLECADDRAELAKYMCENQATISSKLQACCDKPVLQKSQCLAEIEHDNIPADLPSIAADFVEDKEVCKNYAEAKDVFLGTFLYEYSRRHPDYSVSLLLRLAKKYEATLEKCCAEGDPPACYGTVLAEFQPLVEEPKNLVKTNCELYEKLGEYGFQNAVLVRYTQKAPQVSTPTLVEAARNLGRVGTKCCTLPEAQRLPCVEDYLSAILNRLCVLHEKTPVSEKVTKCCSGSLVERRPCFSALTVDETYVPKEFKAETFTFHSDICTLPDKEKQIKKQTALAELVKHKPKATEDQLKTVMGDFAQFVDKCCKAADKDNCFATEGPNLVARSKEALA
T2 sequence (P02768 25-609): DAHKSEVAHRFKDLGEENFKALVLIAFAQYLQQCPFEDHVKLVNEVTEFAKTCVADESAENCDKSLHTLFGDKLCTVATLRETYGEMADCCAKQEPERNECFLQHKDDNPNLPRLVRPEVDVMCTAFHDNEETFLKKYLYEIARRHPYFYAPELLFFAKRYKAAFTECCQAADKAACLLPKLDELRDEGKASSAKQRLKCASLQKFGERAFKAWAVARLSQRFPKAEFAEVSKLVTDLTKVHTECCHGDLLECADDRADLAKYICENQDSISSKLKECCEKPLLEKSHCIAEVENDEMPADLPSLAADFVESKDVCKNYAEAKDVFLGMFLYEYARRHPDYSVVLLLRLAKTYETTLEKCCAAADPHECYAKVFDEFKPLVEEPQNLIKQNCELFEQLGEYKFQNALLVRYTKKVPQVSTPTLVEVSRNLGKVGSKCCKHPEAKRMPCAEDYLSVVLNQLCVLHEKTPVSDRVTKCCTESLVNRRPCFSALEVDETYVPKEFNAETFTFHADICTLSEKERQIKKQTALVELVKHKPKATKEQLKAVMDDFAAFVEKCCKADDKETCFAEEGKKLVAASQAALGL

B1: ADX_6734_A02 (I43A/Y44E) (designed binder)
chain: MGVSDVPRDLEVVAATPTSLLISWDAPAVTVRYYRITYGREVQKYSDLGPLYAEQEFTVPGSKSTATISGLKPGVDYTITVYAVTGSGESPASSKPISINYRTEIDKPSQHHHHHH
With B1, in experiment [1], the MSA DB ELISA (OD450) Ymax obs amounted to 100 and the MSA DB ELISA (OD450) Ymin obs turned out to be 3.

B2: ADX_7016_A01 (parent PKE2 Adnectin) (designed binder)
chain: MGVSDVPRDLEVVAATPTSLLISWDAPAVTVRYYRITYGREVQKYSDLGPLYIYQEFTVPGSKSTATISGLKPGVDYTITVYAVTGSGESPASSKPISINYRTEIDKPSQHHHHHH
notes: N-terminal Met may be cleaved; also called 2629_E06; ADX_2629_E06
Turning to B2, the koff in experiment [2] worked out at 0.000668 s⁻¹; in experiment [4], 0.000391 s⁻¹; in experiment [5], 0.000668 s⁻¹; in experiment [6] it was 0.00143 s⁻¹; in experiment [7], 0.000378 s⁻¹; in [8], 0.000378 s⁻¹. In addition, the koff in experiment [9] was 0.000269 s⁻¹; in [10], 0.00143 s⁻¹; in experiment [11], 0.000391 s⁻¹; in [12], 0.000428 s⁻¹. In addition, the on-rate (kon) in [2] was determined as 237000 M⁻¹ s⁻¹; in experiment [4], 89400 M⁻¹ s⁻¹; in [5], 237000 M⁻¹ s⁻¹; in experiment [6] it was 180000 M⁻¹ s⁻¹; in experiment [7], 61200 M⁻¹ s⁻¹; in experiment [8], 61200 M⁻¹ s⁻¹. For the same molecule, the kon turned out to be 180000 M⁻¹ s⁻¹ in experiment [10] and 89400 M⁻¹ s⁻¹ in experiment [11]. Further, the equilibrium dissociation constant (Kd) is 0.003 to 0.006 µM in experiment [3]; 0.0044 µM in experiment [4]; 0.0028 µM in experiment [5]; 0.008 µM in experiment [6]; 0.0062 µM in experiment [7]; 0.00438 µM in [11]. The same molecule showed a Kd in [13] of 0.003 to 0.006 µM. Also, in experiment [14], the “HSA Binding (RU)” value came to 54 RU. Besides, in experiment [15], the “MSA Binding (RU)” value was 95 RU.

B3: ADX_7016_E02 (L38T) (designed binder)
chain: MGVSDVPRDLEVVAATPTSLLISWDAPAVTVRYYRITYGREVQKYSDTGPLYIYQEFTVPGSKSTATISGLKPGVDYTITVYAVTGSGESPASSKPISINYRTEIDKPSQHHHHHH
notes: Full His6-tagged entry; also called 6727_E08
As for B3, the “MSA DB ELISA YMIN OBS (OD450)” value in experiment [16] was determined as 1 OD450. Also, the Kd was found to be 1.43 µM in experiment [17]; 1.43 µM in [4]; 0.502 µM in experiment [5]; 1.13 µM in [6]; 0.666 µM in [7]. Also, the koff in [17] is 0.171 s⁻¹; in experiment [4] it was 0.171 s⁻¹; in [5], 0.0343 s⁻¹; in experiment [6] it was 0.0558 s⁻¹; in [7], 0.0161 s⁻¹; in experiment [9], 0.00815 s⁻¹. For the same molecule, the koff in experiment [12] worked out at 0.0248 s⁻¹. Besides, the kon turned out to be 119000 M⁻¹ s⁻¹ in experiment [17]; 119000 M⁻¹ s⁻¹ in experiment [4]; 68400 M⁻¹ s⁻¹ in [5]; 49400 M⁻¹ s⁻¹ in [6]; 24200 M⁻¹ s⁻¹ in experiment [7]. Also, the “MSA kd/Parent kd” value in [18] amounted to 57.8. In addition, the “HSA kd/Parent kd” value in [19] was determined as 30.3. Also, the “HSA Binding (RU)” value in experiment [14] was determined as 25 RU. The “MSA Binding (RU)” value in experiment [15] stood at 30 RU.

B4: ADX_7016_G01 (Y44S) (designed binder)
chain: MGVSDVPRDLEVVAATPTSLLISWDAPAVTVRYYRITYGREVQKYSDLGPLYISQEFTVPGSKSTATISGLKPGVDYTITVYAVTGSGESPASSKPISINYRTEIDKPSQHHHHHH
notes: Full His6-tagged entry; also called 6727_G02
On to B4, for which, in [18], the “MSA kd/Parent kd” value was 5. For the same molecule, the Kd in experiment [4] was 0.0681 µM; in [5] it was 0.0268 µM; in experiment [6], 0.104 µM; in [7], 0.0837 µM; in [20], 0.0681 µM. Also, the koff was 0.00426 s⁻¹ in experiment [4]; 0.00629 s⁻¹ in experiment [5]; 0.0346 s⁻¹ in experiment [6]; 0.0032 s⁻¹ in [7]; 0.0015 s⁻¹ in experiment [9]; 0.00213 s⁻¹ in [12]. Also, the koff in experiment [20] was found to be 0.00426 s⁻¹. Also, the kon in experiment [4] came out at 62500 M⁻¹ s⁻¹; in experiment [5], 235000 M⁻¹ s⁻¹; in [6], 331000 M⁻¹ s⁻¹; in experiment [7] it was 38200 M⁻¹ s⁻¹; in experiment [20], 62500 M⁻¹ s⁻¹. Moreover, the “HSA kd/Parent kd” value in experiment [19] worked out at 5.6. Moreover, the “HSA Binding (RU)” value in experiment [14] came to 33 RU. Also, the “MSA Binding (RU)” value in experiment [15] is 64 RU.

B5: ADX_7016_C03 (Y44Q) (designed binder)
chain: MGVSDVPRDLEVVAATPTSLLISWDAPAVTVRYYRITYGREVQKYSDLGPLYIQQEFTVPGSKSTATISGLKPGVDYTITVYAVTGSGESPASSKPISINYRTEIDKPSQHHHHHH
notes: Full His6-tagged entry; also called 6727_B03
As for B5, the “MSA DB ELISA YMIN OBS (OD450)” value in [16] came out at 1 OD450. Further, the “MSA kd/Parent kd” value in experiment [18] is 41.9. For the same molecule, the Kd in experiment [4] amounted to 1.08 µM; in [5], 0.265 µM; in experiment [6], 1.34 µM; in experiment [7], 0.889 µM; in [21], 1.08 µM. Besides, the koff stood at 0.0444 s⁻¹ in [4]; 0.0305 s⁻¹ in experiment [5]; 0.119 s⁻¹ in experiment [6]; 0.0285 s⁻¹ in [7]; 0.0214 s⁻¹ in experiment [9]; 0.0179 s⁻¹ in [12]. The koff in experiment [21] came out at 0.0444 s⁻¹. Further, the kon in experiment [4] is 41200 M⁻¹ s⁻¹; in [5], 115000 M⁻¹ s⁻¹; in [6], 89100 M⁻¹ s⁻¹; in experiment [7], 32100 M⁻¹ s⁻¹; in experiment [21], 41200 M⁻¹ s⁻¹. In [19], the “HSA kd/Parent kd” value is 79.4. Moreover, in [14], the “HSA Binding (RU)” value came out at 14 RU. Moreover, the “MSA Binding (RU)” value in experiment [15] was 33 RU.

The values are drawn from patent publication US20180258158A1 (Bristol-Myers Squibb, published 2018).
